± gives the uncertainty stated by the source.
Experiment: self-splicing fitness, log relative to wild type (ln ratio); higher = more splicing; Tetrahymena group I intron in knt gene, E. coli kanamycin selection, DiMSum; sequences stand for … in CUCUCU…GGAGGGAAAAGUUAUCAGGCAUGCACCUGGUAGCUAGUCUUUAAACCAAUAGAUUGCAUCGGUUUAAAAGGCAAGACCGUCAAAUUGCGGGAAAGGGGUCAACAGCCGUUCAGUACCAAGUCUCAGGGGAAACUUUGAGAUGGCCUUGCAAAGGGUAUGGUAAUAAGCUGACGGACAUGGUCCUAACCACGCAGCCAAGUCCUAAGUCAACAGAUCUUCUGUUGAUAUGGAUGCAGUUCACAGACUAAAUGUCGGUCGGGGAAGAUGUAUUCUUCUCAUAAGAUAUAGUCGGACCUCUCCUUAAUGGGAGCUAGCGGAUGAAGUGAUGCAACACUGGAGCCGCUGGGAACUAAUUUGUAUGCGAAAGUAUAUUGAUUAGUUUUGGAGUACUCGUGGUCG
How it was run: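 Fitness was computed with DiMSum as the error-weighted combination of replicate fold changes, kanamycin versus none, each normalised to wild type. The library randomised all eight intron nucleotides of the P1ex region, with the intron placed in the knt kanamycin-resistance gene on pET-22b(+) in E. coli BL21(DE3). Six replicate transformations were grown overnight at 37°C or 30°C on LB agar with or without 25 μg/mL kanamycin, plus 100 μg/mL carbenicillin, 50 μM IPTG and 0.2% rhamnose. Pooled colonies were amplicon-sequenced on an Illumina HiSeq 2500.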

Sequence	self-splicing fitness (ln) (30 °C)	self-splicing fitness (ln) (37 °C)
CUUAAGCAAUAUUACGUCCA	-2.93 ± 0.48	-2.34 ± 0.46
CUUAAGCAAUAUUACGUGCU	-2.16 ± 0.24	-2.1 ± 0.18
CUUAAGCAAUAUUACGUGGC		0.00177 ± 0.26
CUUAAGCAAUAUUACGUUAG	-3.59 ± 0.23	-1.59 ± 0.17
CUUCAGCAAUAUUACGAGGG	-3.48 ± 0.22	-2.31 ± 0.22
CUUCAGCAAUAUUACGAUGG	-2.3 ± 0.11	-1.38 ± 0.15
CUUCAGCAAUAUUACGCAUC	-2.85 ± 0.22	-2.68 ± 0.22
CUUCAGCAAUAUUACGCCAU	-4.2 ± 0.3	-2.02 ± 0.23
CUUCAGCAAUAUUACGCCGG	-2.73 ± 0.34	
CUUCAGCAAUAUUACGCGCA	-1.93 ± 0.29	0.383 ± 0.28
CUUCAGCAAUAUUACGCUCU	-3.79 ± 0.39	
CUUCAGCAAUAUUACGGACA	-3.26 ± 0.35	-2.3 ± 0.26
CUUCAGCAAUAUUACGGAUC	-1.38 ± 0.08	-0.259 ± 0.1
CUUCAGCAAUAUUACGGGAA	-1.22 ± 0.097	-2.08 ± 0.1
CUUCAGCAAUAUUACGGGAC	-2.8 ± 0.11	-0.836 ± 0.12
CUUCAGCAAUAUUACGGGGU	-3.95 ± 0.2	-2.45 ± 0.25
CUUCAGCAAUAUUACGGGUC	-3.39 ± 0.28	-0.947 ± 0.25
CUUCAGCAAUAUUACGGUGC	-3.36 ± 0.21	-1.56 ± 0.31
CUUCAGCAAUAUUACGUCAC		-1.41 ± 0.19
CUUCAGCAAUAUUACGUCCG	-0.583 ± 0.056	-0.437 ± 0.09

Sequence	self-splicing fitness (ln) (30 °C)	self-splicing fitness (ln) (37 °C)
CUUCAGCAAUAUUACGUCGG	-1.85 ± 0.15	-1.79 ± 0.24
CUUCAGCAAUAUUACGUCUG	-2.73 ± 0.12	-1.48 ± 0.16
CUUCAGCAAUAUUACGUUAG	-1.66 ± 0.071	-1.25 ± 0.094
CUUCAGCAAUAUUACGUUCA	-3.63 ± 0.26	-2.04 ± 0.23
CUUGAGCAAUAUUACGAAAA	-2.53 ± 0.38	-1.92 ± 0.38
CUUGAGCAAUAUUACGAAAC	-4 ± 0.33	-2.78 ± 0.36
CUUGAGCAAUAUUACGAAUC	-4.03 ± 0.31	-1.86 ± 0.26
CUUGAGCAAUAUUACGACGC	-2.13 ± 0.39	-1.9 ± 0.46
CUUGAGCAAUAUUACGACUG	-0.383 ± 0.084	0.0311 ± 0.12
CUUGAGCAAUAUUACGAGUG	-1.72 ± 0.081	-0.765 ± 0.093
CUUGAGCAAUAUUACGCCGG	-4.04 ± 0.46	-1.65 ± 0.47
CUUGAGCAAUAUUACGCGAU		1.12 ± 0.27
CUUGAGCAAUAUUACGCGUU	-4.07 ± 0.39	-2.14 ± 0.23
CUUGAGCAAUAUUACGGACA	-2.41 ± 0.37	
CUUGAGCAAUAUUACGGAUA	-3.62 ± 0.4	-1.76 ± 0.4
CUUGAGCAAUAUUACGGCUU	-3.95 ± 0.22	-2.41 ± 0.24
CUUGAGCAAUAUUACGGUCG	-1.67 ± 0.15	-2.3 ± 0.3
CUUGAGCAAUAUUACGGUGG	-2.55 ± 0.13	-1.52 ± 0.12
CUUGAGCAAUAUUACGUCCA	-3.91 ± 0.39	-2.55 ± 0.41

Reference: the supplement of paper PMC7877785
